Experimental data from the supplement of paper PMC12455559.
± gives the standard deviation of the averaged measurements.

Assays:
[1] = purified protein yield per well (BCA); higher = higher soluble expression
Summary of the method: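 Candidate enzymes were produced in E. coli C41(DE3) grown in 2 mL autoinduction cultures containing 100 µg/mL kanamycin, first at 37 °C for 2 h and then at 18 °C for 40 h. After cell lysis, protein was captured on Ni-charged magnetic beads and freed by SUMO protease cleavage on an OT-2 robot. Purified protein yield per well was read with the Pierce Rapid Gold BCA kit. Values under 25 ug (0.1 mg/mL) fall below the detection threshold.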

[2] = melting temperature (DSF); higher = more thermostable
Experimental: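 Candidate PET hydrolases were expressed in E. coli C41(DE3) in 2 mL autoinduction cultures in 24-deep-well plates, Ni-bead purified and released by SUMO protease cleavage on an OT-2 robot. Yield per well was measured by BCA; values below 25 ug (0.1 mg/mL) are below the detection threshold. Melting temperature was measured by differential scanning fluorimetry with Sypro Orange, ramping from 25 C at 0.3 C/step.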

[3] = PET hydrolysis, aromatic products released after 48 h (umol product/mg enzyme); higher = more PET depolymerization activity
Experimental: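 HTP-purified, SUMO-cleaved, tagless PET hydrolase candidates (5 ug, 1.43 mg/g PET) were incubated 48 h without shaking with 3.5 mg amorphous PET film (aFilm) or crystalline PET powder (cryPow) in 0.5 mL buffer: NaCitrate pH 4.5/5.5, NaPhosphate pH 6.5/7.5, glycine pH 8.5. Incubation was at 40 or 60 C. Aromatic products (TPA, MHET, BHET) in the supernatant were quantified by UV absorbance at 260/280 nm relative to buffer blanks and expressed per mg enzyme. LCC-ICCG was the positive control on every plate.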

[4] = substrate: aFilm, 40 °C, pH 4.5
[5] = substrate: aFilm, 40 °C, pH 5.5
[6] = substrate: aFilm, 40 °C, pH 6.5
[7] = substrate: aFilm, 40 °C, pH 7.5
[8] = substrate: aFilm, 60 °C, pH 4.5
[9] = substrate: aFilm, 60 °C, pH 5.5
[10] = substrate: aFilm, 60 °C, pH 6.5
[11] = substrate: aFilm, 60 °C, pH 7.5
[12] = substrate: cryPow, 40 °C, pH 4.5
[13] = substrate: cryPow, 40 °C, pH 5.5
[14] = substrate: cryPow, 40 °C, pH 6.5
[15] = substrate: cryPow, 40 °C, pH 7.5
[16] = substrate: cryPow, 60 °C, pH 4.5
[17] = substrate: cryPow, 60 °C, pH 5.5
[18] = substrate: cryPow, 60 °C, pH 6.5
[19] = substrate: cryPow, 60 °C, pH 7.5
[20] = substrate: cryPow, 40 °C, pH 8.5
[21] = substrate: cryPow, 60 °C, pH 8.5

Sequence	purified protein yield per well [1] [µg]	melting temperature [2] [C]	PET hydrolysis [3, 4]	PET hydrolysis [3, 5]	PET hydrolysis [3, 6]	PET hydrolysis [3, 7]	PET hydrolysis [3, 8]	PET hydrolysis [3, 9]	PET hydrolysis [3, 10]	PET hydrolysis [3, 11]	PET hydrolysis [3, 12]	PET hydrolysis [3, 13]	PET hydrolysis [3, 14]	PET hydrolysis [3, 15]	PET hydrolysis [3, 16]	PET hydrolysis [3, 17]	PET hydrolysis [3, 18]	PET hydrolysis [3, 19]	PET hydrolysis [3, 20]	PET hydrolysis [3, 21]	PET hydrolysis ([3]; substrate: aFilm, 40 °C, pH 8.5)	PET hydrolysis ([3]; substrate: aFilm, 60 °C, pH 8.5)
AANPYERGPDPTDAILEAARGPFETSRTEVPALSVTGFGGGTIYYPATTSAGTFGGVAVAPGYTADRTSLAWLAERLASHGFVVFNIDTLTRLDQPDSRGRQLLAALDYLTQRSSVRGRLDAGRLGVMGHSMGGGGTLEAARDRPSLQAAVPLTPWDLTKIWSGVRVPTMIVGAEADTIAPVASHAEPFYQSLPSSPGKAYLELNNATHFAPNVPDTTIGKYVVAWMKRFVDDDTRYTRFLCPGPSGGLTVEEYRSTCPFS [TEP194]	325	50.8	< 3	< 3	< 3	< 3	< 3	< 3	2 ± 2.8	< 3	5	8.5 ± 0.71	7	1.5 ± 2.1	3.5 ± 0.71	7	3.5 ± 0.71	< 3				
AANPYQRGPAPTAASVAAVTGPFATASVSVPRGNGFGGGVIYYPTDTSQGTFGGLAISPGLNGTWPGIAWLGSRLASQGFIVFGIETNNLNDSPTSRGTQLLAALDYLAQRSSVRSRLDPGRLAVAGHSMGGGGALDAALRRPSLKAAIGNAPYLPSNTLAGNRVPTLIYAMQNDTLVPPSRLTSLYNTIPATTERAYLEITGAGHNYIGQPSTTLARTMIPWLKIFIDNDTRFSQFLCPLADQSGIRQYRSSCPLVPATTRALTAAAG [DP043]	92	67.3										12	39	96		7	62	98	115	107		
AASPYERGPDPTEQTITAERGPFQVATATVPANSASGFNRGTIYYPTDTSQGTFGAVAIIPGFIEPESTMSWYGPRLASQGFVVFTLEPFSVLNFPDDRANQLLAALDYLTGSSSVRSRVDASRLAVMGHSMGGGGTLRAAEMRPSLQAAIPLAPWHLHGDWRNVRVPTMIQAADNDFIAGVGNHAQPFYQNLTNAPEKAYLLFENYGHMSWISANTPIAKYSIAWLKRYVDDDTRYSKFLCPAPGAPSSTFQEYRHTCPD [DP044]	28	69.4										< 3	< 3	< 3					< 3			
ADLLSQGRPATASSTEKESTPASAAVDGDTGTRWSSTFGDPQWLQVDLGATATLSRIVLRWEAAYARTFRIQTSDDGTAWTTVHSTTTGAGGVQTLDVNGTGRYVRLHGTQRGTLYGYSLWEFQVYGSGDGTPPDGTIPDPTTASLEAAAGPLPTAAYTVPSPSGYGSGTVTYPTSGGAYPGVVLMPGYQGTQENLRWLAPRLASWGFVVLNVGTTTLLDDPASRGRQISAAGIQLLALGGTSGNPLSGKLDGTLGAVGHSMGGGGVMAALRDDPRFRAGVPTAPYYPNMNFSQVTDPTFFLTCQSDPVAHGNTYAVPWYTTMSRAEKLYVEVPGDHLCPMTGYGDKARQGKWIVSFLSLWLRADTRFGPFLCGPAREADKNNTALVTRWMDTCPF [TEP160]	31	68.5									< 3	< 3	< 3	< 3								
ADLLSQGRPVTASSTENASTPASAAVDGNTGTRWSSAFSDPQWLTVDLGTTATISRVVLRWETAYARRFQIQTSDDGTAWTTIHSATAGTGGVQTLDVTGSGRYVRVHGTQRGTAYGYSLWEFQVYGTRGTTPGEGIPDPSTASLEAAAGPLTTATYTVPDPSGYGSGTVTYPTAGGSYPGVVLMPGYQGTQQNLQWLAPRLASWGFVVLNVGTNTLTDDPASRGRQITAAGTQLLALGAATGNPLSGKVNGTLGAVGHSMGGGGVMAALRDDARFRAGVPTAPYYPNGNFSGVTDPTFFLTCQSDPVAHGNSYALPWYNSMSQSEKLYIEVPGDHLCPMTGSGDKAKQGKWIVSFLSHWLRADTRFTPFLCGPAREADKNDPSLVTRWMDTCPL [TEP036]	230	51.4	< 3	< 3	< 3	< 3	< 3	< 3	< 3	< 3	< 3	< 3	< 3	< 3	< 3	< 3	< 3	< 3				
ADNPFQRGPDPTRASVAAQTGPFANASVSVPTGYGFNGGRIYYPTDTSQGTFGAIAISPGYTALFSAELAWMGPWLASHGFVVIGIETNSRNDFDTARGTQLLAALDYLTQQSPVRDRVDPNRLAVSGHSMGGGGALSAASRRSSLKAAVGITPYSPSSNLANDRVPTMIISGQADTVVTPSYALGLYNSLPATTESVYLEVAGGDHGFMVGRSNPVMIRTMLPFVKMFIDNDTRYSQFLCPLADSSGVVTYRSTCPLLPGAPTTPPTTPPTDSPGSAGEIVGTQSGRCIDVPNAARDNGTRVQLYDCNKQPNQSWTYTSNKQLQVYGDRCLDAAGSGNGAAVQIYSCHSQTNQQWNLNSNGTISNVQSGRCLDVWSTANGAQVQLYDCHGQTNQQFRLASRTR [DP061]	265	59.8		< 3	< 3	< 3		< 3	< 3	< 3		14 ± 2.8	20 ± 1.4	7.5 ± 5		< 3	< 3	< 3	2 ± 2.8	< 3	< 3	< 3
ADNPFQRGPNPTVASVAATRGTFATAQTSVPAGNGFGGGVIYYPTDTSQGTFGGVAIVPGYSALFANEEAWMGPWLASFGFVVIGIETNSRTDSADARGTQLLAALDYLTQRSSVRDRVDPNRLSVVGHSAGGAGVLSALLRRPSLKAGVGLAPGSPVGNYDLYNDRVPTMFISGQRDTTVTQSYLNGLYSTLPATTPSAWVEITGVDHLFATRANTTEMRVLIPWLKIWVDNDTRYTQFLCPLADSSNISMYRNKCPYVPPGGSSPSPSASPSSSPSPSPSSSPSPSPSPSPSPSPSPSPSPTTSPSPPPPGACSAAYRTVNSWPGGYQGEVTVTAGGSAVNGWTVRWTLGSGQTITQLWNGTLSTSGSAVTVKNASFNGSIPASGSATFGFLATGTPSAPSLSCTSP [ESM007]	424	59.2									< 3	< 3	< 3	< 3	< 3	< 3	< 3	< 3				
ADNPFQRGPNPTVASVAATRGTFATAQTSVPAGNGFGGGVVYYPTDTSQGTFGGVAIVPGYSALFADEEAWMGPWLASFGFVVIGIETNSRTDSADARGTELLAALDYLTQRSPVRDRVDPNRLSVVGHSAGGAGVLSALLRRPSLKAGVGLAPGSPVGNYDLYSDRVPTMFISGQRDTTVTQSYLNGLYSTLPATTPSAWVEITGVDHLFATRANTTEMRVLIPWLKIWVDNDTRYTQFLCPLADSTGISMYRDKCPYVPPGGSSPSPSASPSSTPSRSPSPSPSPSPSPSPSPSPSPSPSPSPSASPSLPPPGACVAEYRTMNSWPGGYQAMVTVTAGGTAVNGWTVRWTLGGGQTISQLWNGTLSTSGSAVTVKNASYNGSIPASGSATFGFLATGTPSTPSLTCTSP [ESM036]	376	49.6	< 3	< 3	< 3	< 3	< 3	< 3	< 3	< 3	< 3	< 3	< 3	< 3	< 3	< 3	< 3	< 3				
ADNPFQRGPNPTVESVAATRGTFATAQTSVPAGNGFGGGVVYYPTDTSQGTFGGVAIVPGYSALFADEEAWMGPWLASFGFVVIGIETNSRTDSADARGTQLLAALDYLTQRSPVRDRVDPNRLSVVGHSAGGAGVLSALLRRPSLKAGVGLAPGSPVGNYDLYDDRVPTMFISGQRDTTVTRSYLNGLYGTLPATTPSAWVEITGVDHLFATRANTTEMRVLIPWLKIWVDDDTRYTRFLCPLADSTGISMYRDTCPYVPPGGSSPSPSASPSPSPSPSPSPSPSPSPSPSPSPSPSPSPSASPSASPSPPPPGACAAEYHTVNSWPGGYQASVTVTAGASAVQGWTVRWTLGSGQSITQLWNGTLSTSGSAVTVKNASYNGTIPASGSATFGFLATGTPSAPPLTCTSP [ESM067]	447	57.1	< 3	< 3	< 3	< 3	< 3	< 3	< 3	< 3	< 3	< 3	< 3	< 3	< 3	< 3	< 3	< 3				
ADNPHQRGPNPTQASITANRGTFATAETSVGGGNGFGAAKIYYPTDTSQGTFGAIAVVPGYTATWAAEGAWMGHWLASFGFVVIGIDTLNRNDFDVARGTQLLAALDYLTQRSSVRTRVDPNRLAVMGHSMGGGGTISAALRWPTLKAAIGLAPYSPSQTTSGLQVPTMLLAGQNDGTSTPASIISLYNNIPASTEKSYLELAGAGHGFPTSNNSVMTRKVIPWMKIFIDQDARYTQFLCPLQDWTGIRSYRSSCPLLPGATFSLAGSASGKCVDVPGRVQTNGTGLIIWTCNGAVNQQWTRTAAGELRIYDNAKCMDANASGPGTRVTINSCNGGNSQKWTVNANGTVTNAASGRCIDTGGTADNAPVVVNTCTGGTSQT [ESM163]	96.4	58									< 3	< 3	< 3	< 3	< 3	< 3	< 3	< 3				
